Experimental data from patent US20230265179A1 (TWIST BIOSCIENCE, published 2023).
Substitutions are numbered along the chain they refer to. One block for each binder: values may come before it.

Molecular target: T1, CD40L (UniProt P29965 1-261, limits assumed)
T1 construct: whole, on cells; also called cytokine over-expressing Expi293 cells (CD40L)
T1 sequence (looked up): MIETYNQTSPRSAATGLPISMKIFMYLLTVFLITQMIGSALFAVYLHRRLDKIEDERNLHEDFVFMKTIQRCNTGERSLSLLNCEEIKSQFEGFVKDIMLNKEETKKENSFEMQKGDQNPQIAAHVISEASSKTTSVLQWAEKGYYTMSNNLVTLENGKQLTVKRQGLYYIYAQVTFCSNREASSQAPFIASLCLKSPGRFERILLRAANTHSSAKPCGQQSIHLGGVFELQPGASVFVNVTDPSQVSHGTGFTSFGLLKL
Assay: flow cytometry, 100 nM IgG, CD40L over-expressing Expi293 cells over parent Expi293 cells
Protocol: All incubations and washes were in buffer containing PBS+1% BSA. MFI Ratio is defined by the mean fluorescence intensity (MFI) of the cytokine over-expressing Expi293 cell over the Expi293 parent cell. […] EC50 was calculated in GraphPad Prism.

100 nM FACS (MFI Ratio): 8.1 MFI ratio
B1: CD40L-378 (antibody, V domains shown)
VH: EVQLLESGGGLVQPGGSLRLSCAASGFTFRSYAMTWVRQAPGKGLEWVSAISGSGDRTYYGDSVKGRFTISRDNSKNTLYLQMNSLRAEDTAVYYCARIARSEDFWSGYYTDFDFDYWGQGTLVTVSS
VL: DIQMTQSPSSLSASVGDRVTITCRASQSISTYLNWYQQKPGKAPKLLIYRASTLQSGVPSRFSGSGSGTDFTLTISSLQPEDFATYYCQQSYSNPPTFGGGTKVEIK

100 nM FACS (MFI Ratio): 6.2 MFI ratio
B2: CD40L-348 (antibody, V domains shown)
VH: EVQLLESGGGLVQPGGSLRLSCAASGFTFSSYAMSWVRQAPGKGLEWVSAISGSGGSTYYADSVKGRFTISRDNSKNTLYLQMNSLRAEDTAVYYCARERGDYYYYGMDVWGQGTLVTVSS
VL: B1 VL with S28T, T31N, Y32F, R50A, S56Y, S91N, S93R, N94S, P96L

100 nM FACS (MFI Ratio): 8.5 MFI ratio
B3: CD40L-372 (antibody, V domains shown)
VH: EVQLLESGGGLVQPGGSLRLSCAASGFTFTSYAMTWVRQAPGKGLEWVSSITSSGGSTYYADSVKGRFTISRDNSKNTLYLQMNSLRAEDTAVYYCARAHDYDSMLMDYWGQGTLVTVSS
VL: B1 VL with S30R, T31S, R50A, A51T, T53S, Q55H, L78M, Y92F, N94L

100 nM FACS (MFI Ratio): 3 MFI ratio
B4: CD40L-363 (antibody, V domains shown)
VH: EVQLLESGGGLVQPGGSLRLSCAASGFTFSDYDMSWVRQAPGKGLEWVSGISGSGATTYYADSVKGRFTISRDNSKNTLYLQMNSLRAEDTAVYYCARDSSGSYYYPLDYWGQGTLVTVSS
VL: B1 VL with A25T, T31S, L33A, R50G, T53R, Q55E, S91T, N94T, P96W, E105G

100 nM FACS (MFI Ratio): 66.4 MFI ratio
B5: CD40L-350 (antibody, V domains shown)
VH: EVQLLESGGGLVQPGGSLRLSCAASGLTFGSYAMSWVRQAPGKGLEWVSAISGSVGSTYYADSVKGRFTISRDNSKNTLYLQMNSLRAEDTAVYYCARHGGYYYYYMDVWGQGTLVTVSS
VL: B1 VL with T31S, L33V, N34S, R50D, T53S, Q55S, S56G, S93R, N94I, P96L

100 nM FACS (MFI Ratio): 8.4 MFI ratio
B6: CD40L-380 (antibody, V domains shown)
VH: B3 VH with T28G, T30S, T35S, S50A, T52S, S53G, S54G, T58I
VL: B1 VL with I29V, T31R, Y32F, R50A, S56P, S93E, N94T, P96L

100 nM FACS (MFI Ratio): 6.8 MFI ratio
B7: CD40L-364 (antibody, V domains shown)
VH: EVQLLESGGGLVQPGGSLRLSCAASGFTFSPYAMSWVRQAPGKGLEWVSSITGTGGSTYYADSVKGRFTISRDNSKNTLYLQMNSLRAEDTAVYYCARSWASEDFDWLPNFDFWGQGTLVTVSS
VL: B1 VL with A25V, T31S, N34H, R50A, T53S, S56T, S93T, N94L, P96L

100 nM FACS (MFI Ratio): 11.6 MFI ratio
B8: CD40L-347 (antibody, V domains shown)
VH: B3 VH with T30S, S31N, T35S, S50A, S53G, G56S, S57T
VL: B1 VL with S30G, Y32F, R50G, A51T, T53N, S91G, S93R, N94T, P96L

100 nM FACS (MFI Ratio): 1060 MFI ratio
B9: CD40L-362 (antibody, V domains shown)
VH: EVQLLESGGGLVQPGGSLRLSCAASGFTFTSYAMSWVRQAPGKGLEWVSGISGSGINTYYADSVKGRFTISRDNSRNTLYLQMNSLRAEDTAVYYCVRSSWSDVWGQGTLVTVSS
VL: B1 VL with S28N, S30I, T31N, R50G, Q55E, N94V, P96L

100 nM FACS (MFI Ratio): 7.6 MFI ratio
B10: CD40L-355 (antibody, V domains shown)
VH: EVQLLESGGGLVQPGGSLRLSCAASGFIFSNYDMSWVRQAPGKGLEWVSGISGSGGSTSYADSVKGRFTISRDNSKNTLYLQMNSLRAEDTAVYYCARHGGYNPYGLDYWGQGTLVTVSS
VL: B1 VL with S9F, S28N, S30L, R50G, Q55R, S93R, N94L, P96L

100 nM FACS (MFI Ratio): 4.2 MFI ratio
B11: CD40L-358 (antibody, V domains shown)
VH: EVQLLESGGGLVQPGGSLRLSCAASGFTFSTYAMNWVRQAPGKGLEWVSAISGSGGTTYYADSVKGRFTISRDNSKNTLYLQMNSLRAEDTAVYYCARGPNNWNYVSFDYWGQGTLVTVSS
VL: B1 VL with S28Y, S30G, R50A, S52A, T53N, N94I, P96L

100 nM FACS (MFI Ratio): 43 MFI ratio
B12: CD40L-366 (antibody, V domains shown)
VH: B3 VH with T28G, T30S, T35S, S50A, S53G, G56S, S57T
VL: B1 VL with I29V, T31R, Y32F, R50A, S56P, S93E, N94T, P96L

100 nM FACS (MFI Ratio): 15.4 MFI ratio
B13: CD40L-360 (antibody, V domains shown)
VH: EVQLLESGGGLVQPGGSLRLSCAASGFTFGRYAMSWVRQAPGKGLEWVSDISGSGGSTYYADSVKGRFTISRDNSKNTLYLQMNSLRAEDTAVYYCARDGFRWGRAEYFQHWGQGTLVTVSS
VL: B1 VL with S28T, T31S, N34S, R50D, S93R, N94I, P96L

100 nM FACS (MFI Ratio): 1.7 MFI ratio
B14: CD40L-381 (antibody, V domains shown)
VH: EVQLLESGGGLVQPGGSLRLSCAASGFTFSSYDMNWVRQAPGKGLEWVAAISGSGGTTYYADSVKGRFTISRDNSKNTLYLQMNSLRAEDTAVYYCARGVYESMTGTYGYVDWFDPWGQGTLVTVSS
VL: B1 VL with S30P, R50A, S52A, T53N, S93A, N94T, P96F

100 nM FACS (MFI Ratio): 5.8 MFI ratio
B15: CD40L-349 (antibody, V domains shown)
VH: EVQLLESGGGLVQPGGSLRLSCAASGFGFSSYAMSWVRQAPGKGLEWVSAISGGGGSIYYADSVKGRFTISRDNSKNTLYLQMNSLRAEDTAVYYCATDYGDYDRLNFDLWGQGTLVTVSS
VL: B1 VL with S28T, S30G, T31S, R50A, S56P, S93E, N94T, P96L

100 nM FACS (MFI Ratio): 5.1 MFI ratio
B16: CD40L-359 (antibody, V domains shown)
VH: EVQLLESGGGLVQPGGSLRLSCAASGYTFSSYAMSWVRQAPGKGLEWVSGISGGGTSTYYADSVKGRFTISRDNSKNTLYLQMNSLRAEDTAVYYCARFGNHYDRTGYSDYWGQGTLVTVSS
VL: B1 VL with S28N, S30G, T31G, R50G, T53R, N94T, P96F

100 nM FACS (MFI Ratio): 4.6 MFI ratio
B17: CD40L-365 (antibody, V domains shown)
VH: EVQLLESGGGLVQPGGSLRLSCAASGFTFSYYAMTWVRQAPGKGLEWVSGISGSGGSSYYADSVKGRFTISRDNSKNTLYLQMNSLRAEDTAVYYCARSHDYDRQTFDYWGQGTLVTVSS
VL: B1 VL with S30A, N34H, R50S, Q55E, S93R, N94P, P96L

100 nM FACS (MFI Ratio): 4.3 MFI ratio
B18: CD40L-437 (antibody, V domains shown)
VH: EVQLLESGGGLVQPGGSLRLSCAASGFSFSSYAMAWVRQAPGKGLEWVSSISGSGGGGNTYYADSVKGRFTISRDNSKNTLYLQMNSLRAEDTAVYYCARHHERDYYGMDVWGQGTLVTVSS
VL: B1 VL with S28T, T31N, Y32F, R50A, S56Y, S91T, N94F, P96L

100 nM FACS (MFI Ratio): 13.5 MFI ratio
B19: CD40L-376 (antibody, V domains shown)
VH: B17 VH with Y31S, T35S, G50A, G53A, S57T, S58T
VL: B1 VL with Y32F, N34S, R50A, A51T, Q55E, N94T, P96L

100 nM FACS (MFI Ratio): 1.6 MFI ratio
B20: CD40L-386 (antibody, V domains shown)
VH: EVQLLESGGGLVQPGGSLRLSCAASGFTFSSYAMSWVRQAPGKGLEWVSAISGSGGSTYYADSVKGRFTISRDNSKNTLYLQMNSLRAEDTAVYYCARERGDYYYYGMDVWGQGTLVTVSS
VL: B1 VL with Q27E, S30T, R50T, T53G, S93T, N94V, P96I

100 nM FACS (MFI Ratio): 6.2 MFI ratio
B21: CD40L-396 (antibody, V domains shown)
VH: B18 VH
VL: B1 VL with S28R, T31R, Y92H, N94S, P96L

100 nM FACS (MFI Ratio): 6.9 MFI ratio
B22: CD40L-354 (antibody, V domains shown)
VH: B18 VH
VL: B1 VL with S30G, T31E, R50S, T53S, S56N, S91T, N94F, P96L

100 nM FACS (MFI Ratio): 3.6 MFI ratio
B23: CD40L-418 (antibody, V domains shown)
VH: B13 VH
VL: B1 VL with Q27E, S30T, R50T, T53G, S93T, N94V, P96I

100 nM FACS (MFI Ratio): 5 MFI ratio
B24: CD40L-429 (antibody, V domains shown)
VH: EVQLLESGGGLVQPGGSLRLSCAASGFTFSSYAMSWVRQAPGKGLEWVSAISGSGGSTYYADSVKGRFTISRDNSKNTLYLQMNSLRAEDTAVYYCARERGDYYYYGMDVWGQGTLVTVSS
VL: B1 VL with S28T, T31Y, R50D, S52T, T53S, S91T, N94L, P96L

100 nM FACS (MFI Ratio): 7.7 MFI ratio
B25: CD40L-345 (antibody, V domains shown)
VH: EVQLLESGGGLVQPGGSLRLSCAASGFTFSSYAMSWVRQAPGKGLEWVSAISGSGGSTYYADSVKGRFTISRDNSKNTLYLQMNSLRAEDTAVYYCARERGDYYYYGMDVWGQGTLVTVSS
VL: B1 VL with S28T, T31N, Y32F, R50A, S56Y, S91N, S93R, N94S, P96L, G100Q

100 nM FACS (MFI Ratio): 7.1 MFI ratio
B26: CD40L-404 (antibody, V domains shown)
VH: EVQLLESGGGLVQPGGSLRLSCAASGFTFRTYAMGWVRQAPGKGLEWVSAISGSGGIAYYADSVKGRFTISRDNSKNTLYLQMNSLRAEDTAVYYCARHYYYDSSDAFDIWGQGTLVTISS
VL: B1 VL with S28T, T31Y, R50D, S52T, T53S, S91T, N94L, P96L

100 nM FACS (MFI Ratio): 1.7 MFI ratio
B27: CD40L-373 (antibody, V domains shown)
VH: B26 VH
VL: B1 VL with A25G, T31S, Y32F, R50A, T53K, Q55H, Q90H, N94T, P96L

100 nM FACS (MFI Ratio): 3.5 MFI ratio
B28: CD40L-371 (antibody, V domains shown)
VH: EVQLLESGGGLVQPGGSLRLSCAASGFTSNIYAMSWVRQAPGKGLEWVSAISGSGFSTYYADSVKGRFTISRDNSKNTLYLQMNSLRAEDTAVYYCAKLAQNYGDPDAFDIWGQGTLVTVSS
VL: DIQMTQSPSSLSASVGDRVTITCRASQSISKYLNWYQQKPGKAPKLLIYAATSLESGVPSRFSGSGSGTDFTLTISSLQPEDFATYYCQQSYSTPLFTFGGGTKVEIK
